Experimental data published in patent US11071755 (CRISPR THERAPEUTICS, dated 2021).

T1: recombinant biotinylated human BCMA (human, UniProt Q02223 1-54, biotinylated)
T1 construct: Soluble labelled reagent, detected with streptavidin-APC; also called recombinant BCMA; biotinylated BCMA
T1 sequence (looked up): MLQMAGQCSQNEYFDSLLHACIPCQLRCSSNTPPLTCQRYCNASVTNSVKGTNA


Biological target: T1, recombinant biotinylated human BCMA
Assay: flow cytometry, recombinant BCMA on CAR-T cells
Experimental: Allogeneic anti-BCMA CAR T cells were generated as described above. Anti-BCMA CAR expression was measured by determining the percent of cells that bound biotinylated BCMA subsequently detected by FACS using streptavidin-APC (FIG. 47).
Figure 48: FIG. 48 is a graph showing anti-BCMA CAR expression. Allogeneic CAR T cells were generated as previously described. Anti-BCMA CAR expression was measured by determining the percent of cells that bound biotinylated recombinant human BCMA subsequently detected by FACS using streptavidin-APC. […] CAR constructs were evaluated for their ability to kill RPMI-8226 cells. […] Following enrichment/purification, greater than 99.5% of the gene edited cells are TCR negative.

Row | Binder | binding result
1 | anti-BCMA CAR of CTX-152 (BCMA-1: CD8[signal peptide]-VH-linker-VL-CD8[tm]-CD28[co-stimulatory domain]-CD3z) (other, CAR on edited primary human T cells, co-expressed with GFP from a bicistronic 2A mRNA; also called BCMA-1 CAR) QVQLQQSGGGLVQPGGSLKLSCAASGIDFSRYWMSWVRRAPGKGLEWIGEINPDSSTINYAPSLKDKFIISRDNAKNTLYLQMSKVRSEDTALYYCASLYYDYGDAMDYWGQGTSVTVSSGGGGSGGGGSGGGGSGDIVMTQSQRFMTTSVGDRVSVTCKASQSVDSNVAWYQQKPRQSPKALIFSASLRFSGVPARFTGSGSGTDFTLTISNLQSEDLAEYFCQQYNNYPLTFGAGTKLELKSAAAFVPVFLPAKPTTTPAPRPPTPAPTIASQPLSLRPEACRPAAGGAVHTRGLDFACDIYIWAPLAGTCGVLLLSLVITLYCNHRNRSKRSRLLHSDYMNMTPRRPGPTRKHYQPYAPPRDFAAYRSRVKFSRSADAPAYQQGQNQLYNELNLGRREEYDVLDKRRGRDPEMGGKPRRKNPQEGLYNELQKDKMAEAYSEIGMKGERRRGKGHDGLYQGLSTATKDTYDALHMQALPPR | binds
2 | anti-BCMA CAR of CTX-154 (BCMA-2: CD8[signal peptide]-VL-linker-VH-CD8[tm]-CD28[co-stimulatory domain]-CD3z) (other, CAR on edited primary human T cells, co-expressed with GFP from a bicistronic 2A mRNA; also called BCMA-2 CAR) DIVMTQSQRFMTTSVGDRVSVTCKASQSVDSNVAWYQQKPRQSPKALIFSASLRFSGVPARFTGSGSGTDFTLTISNLQSEDLAEYFCQQYNNYPLTFGAGTKLELKGGGGSGGGGSGGGGSGQVQLQQSGGGLVQPGGSLKLSCAASGIDFSRYWMSWVRRAPGKGLEWIGEINPDSSTINYAPSLKDKFIISRDNAKNTLYLQMSKVRSEDTALYYCASLYYDYGDAMDYWGQGTSVTVSSSAAAFVPVFLPAKPTTTPAPRPPTPAPTIASQPLSLRPEACRPAAGGAVHTRGLDFACDIYIWAPLAGTCGVLLLSLVITLYCNHRNRSKRSRLLHSDYMNMTPRRPGPTRKHYQPYAPPRDFAAYRSRVKFSRSADAPAYQQGQNQLYNELNLGRREEYDVLDKRRGRDPEMGGKPRRKNPQEGLYNELQKDKMAEAYSEIGMKGERRRGKGHDGLYQGLSTATKDTYDALHMQALPPR | binds

Biological target: T1, recombinant biotinylated human BCMA
Assay: flow cytometry, biotinylated BCMA on CAR-T cells detected with streptavidin-APC
Experimental: Allogeneic TRAC−/B2M−/anti-BCMA CAR T+ cells were generated, as described above, having either a CD28 co-stimulatory domain (encoded by CTX-160 or CTX-166) or a 4-1BB co-stimulatory domain (encoded by CTX160b or CTX166b). Anti-BCMA CAR expression was measured by determining the percent of cells that bound biotinylated BCMA subsequently detected by FACS using streptavidin-APC (FIG. 67). Greater than 60% of the cells expressed the CAR at the cell surface.

Row | Binder | percent of cells that bound biotinylated BCMA [%]
3 | anti-BCMA CAR of CTX-160 (CD28 co-stimulatory domain) (other, CAR on edited primary human T cells; also called anti-BCMA (CD28) CAR) EVQLVESGGGLVQPGGSLKLSCAASGIDFSRYWMSWVRQAPGKGLEWIGEINPDSSTINYADSVKGRFTISRDNAKNTLYLQMNLSRAEDTALYYCASLYYDYGDAMDYWGQGTLVTVSSGGGGSGGGGSGGGGSDIQMTQSPSSLSASVGDRVTITCRASQSVDSNVAWYQQKPEKAPKSLIFSASLRFSGVPSRFSGSGSGTDFTLTISSLQPEDFATYYCQQYNSYPLTFGAGTKLEIKSAAAFVPVFLPAKPTTTPAPRPPTPAPTIASQPLSLRPEACRPAAGGAVHTRGLDFACDIYIWAPLAGTCGVLLLSLVITLYCNHRNRSKRSRLLHSDYMNMTPRRPGPTRKHYQPYAPPRDFAAYRSRVKFSRSADAPAYQQGQNQLYNELNLGRREEYDVLDKRRGRDPEMGGKPRRKNPQEGLYNELQKDKMAEAYSEIGMKGERRRGKGHDGLYQGLSTATKDTYDALHMQALPPR | > 60
4 | anti-BCMA CAR of CTX-166 (CD28 co-stimulatory domain) (other, CAR on edited primary human T cells; also called anti-BCMA (CD28) CAR) QVQLVQSGAELKKPGASVKVSCKASGNTLTNYVIHWVRQAPGQRLEWMGYILPYNDLTKYSQKFQGRVTITRDKSASTAYMELSSLRSEDTAVYYCTRWDWDGFFDPWGQGTTVTVSSGGGGSGGGGSGGGGSEIVMTQSPATLSVSPGERASISCRASQSLVHSNGNTHLHWYQQRPGQAPRLLIYSVSNRFSEVPARFSGSGSGTDFTLTISSVESEDFAVYYCSQTSHIPYTFGGGTKLEIKSAAAFVPVFLPAKPTTTPAPRPPTPAPTIASQPLSLRPEACRPAAGGAVHTRGLDFACDIYIWAPLAGTCGVLLLSLVITLYCNHRNRSKRSRLLHSDYMNMTPRRPGPTRKHYQPYAPPRDFAAYRSRVKFSRSADAPAYQQGQNQLYNELNLGRREEYDVLDKRRGRDPEMGGKPRRKNPQEGLYNELQKDKMAEAYSEIGMKGERRRGKGHDGLYQGLSTATKDTYDALHMQALPPR | > 60
5 | anti-BCMA CAR of CTX-160b (4-1BB co-stimulatory domain) (other, CAR on edited primary human T cells; also called anti-BCMA (4-1BB) CAR) EVQLVESGGGLVQPGGSLKLSCAASGIDFSRYWMSWVRQAPGKGLEWIGEINPDSSTINYADSVKGRFTISRDNAKNTLYLQMNLSRAEDTALYYCASLYYDYGDAMDYWGQGTLVTVSSGGGGSGGGGSGGGGSDIQMTQSPSSLSASVGDRVTITCRASQSVDSNVAWYQQKPEKAPKSLIFSASLRFSGVPSRFSGSGSGTDFTLTISSLQPEDFATYYCQQYNSYPLTFGAGTKLEIKSAAAFVPVFLPAKPTTTPAPRPPTPAPTIASQPLSLRPEACRPAAGGAVHTRGLDFACDIYIWAPLAGTCGVLLLSLVITLYCNHRNRKRGRKKLLYIFKQPFMRPVQTTQEEDGCSCRFPEEEEGGCELRVKFSRSADAPAYQQGQNQLYNELNLGRREEYDVLDKRRGRDPEMGGKPRRKNPQEGLYNELQKDKMAEAYSEIGMKGERRRGKGHDGLYQGLSTATKDTYDALHMQALPPR | > 60
6 | anti-BCMA CAR of CTX-166b (4-1BB co-stimulatory domain) (other, CAR on edited primary human T cells; also called anti-BCMA (4-1BB) CAR) QVQLVQSGAELKKPGASVKVSCKASGNTLTNYVIHWVRQAPGQRLEWMGYILPYNDLTKYSQKFQGRVTITRDKSASTAYMELSSLRSEDTAVYYCTRWDWDGFFDPWGQGTTVTVSSGGGGSGGGGSGGGGSEIVMTQSPATLSVSPGERASISCRASQSLVHSNGNTHLHWYQQRPGQAPRLLIYSVSNRFSEVPARFSGSGSGTDFTLTISSVESEDFAVYYCSQTSHIPYTFGGGTKLEIKSAAAFVPVFLPAKPTTTPAPRPPTPAPTIASQPLSLRPEACRPAAGGAVHTRGLDFACDIYIWAPLAGTCGVLLLSLVITLYCNHRNRKRGRKKLLYIFKQPFMRPVQTTQEEDGCSCRFPEEEEGGCELRVKFSRSADAPAYQQGQNQLYNELNLGRREEYDVLDKRRGRDPEMGGKPRRKNPQEGLYNELQKDKMAEAYSEIGMKGERRRGKGHDGLYQGLSTATKDTYDALHMQALPPR | > 60
